Data as given in patent publication US20220242939A1 (BIOARCTIC, published 2022).
Blank lines part the entries; values can stand above or below the binder they belong to. Non-standard residues stand in square brackets, D forms with d. No end group written: not given here. Ahx = NCCCCCC(=O)O

What was measured:
[1] = biological target: 38G9, monoclonal anti-A199 antibody; test: inhibition ELISA: antigen in solution varied, antibody 38G9 at 0.05 µg/ml, plate coated with A199-BSA peptide
Protocol: (§1) 0.5 μg/ml solution of N-terminal neo-epitope peptide A199 (SEQ ID NO:51) conjugated to BSA was prepared by dilution in PBS. 50 μl/well were added to an ELISA half-area 96 well microtiter plate, the plate was sealed with adhesive sealer and incubated over night at 4° C. After discarding the solution, the plates were blocked with protein-free blocking solution (Pierce) (150 μl/well) at room temperature for 90 min with shaking (900 rpm). The blocked plate was washed four times with washing buffer containing 0.28 mM NaH₂PO₄, 2.5 mM Na₂HPO₄, 150 mM NaCl, 0.1% TWEEN®-20 and 0.0075% Kathon CG.
(§2) Serial dilutions of each synthetic ApoE peptide were prepared by 4-fold dilution starting from 10000 ng/ml in 96 well storage plates (30 μl final volume). Each purified monoclonal antibody to be tested was added (30 μl) to the serial dilutions of each of the synthetic ApoE peptides at a final concentration of 0.05 μg/ml per well. […]
(§3) The pre-incubated samples were transferred (50 μl/well) to the blocked ELISA plates, and plates were incubated for 10 min at room temperature without shaking. […] Alkaline phosphatase substrate (50 μl/well) was added to the plate and the optical density was read every 10 min at a wavelength of 405 nm for up to 120 min. The IC50 values were determined from a log inhibitor concentration response curve (FIG. 29).

[2] = biological target: 63F6, monoclonal anti-A199 antibody; test: inhibition ELISA: antigen in solution varied, antibody 63F6 at 0.05 µg/ml, plate coated with A199-BSA peptide
Protocol: as §1, §2, §3

[3] = biological target: 67G3, monoclonal anti-A199 antibody; test: inhibition ELISA: antigen in solution varied, antibody 67G3 at 0.05 µg/ml, plate coated with A199-BSA peptide
Protocol: as §1, §2, §3

[4] = biological target: 36A12, monoclonal anti-A199 antibody; test: inhibition ELISA: antigen in solution varied, antibody 36A12 at 0.05 µg/ml, plate coated with A199-BSA peptide
Protocol: as §1, §2, §3

[5] = biological target: 6F4, monoclonal anti-L198 antibody; test: inhibition ELISA; antibody at 0.05 ug/ml pre-incubated with the peptide in solution (4-fold dilutions from 10000 ng/ml), then on a plate coated with L198-BSA peptide; blank reduced OD 405 nm
Protocol: as §1, with “L198” for “A199”, “NO:52)” for “NO:51)”
(§4) Serial dilutions of each synthetic ApoE peptide were prepared by 4-fold dilution starting from 10000 ng/ml in 96 well storage plates (30 μl final volume). Each recombinant antibody to be tested was added (30 μl) to the serial dilutions of each of the synthetic ApoE peptides at a final concentration of 0.05 μg/ml per well. Samples were pre-incubated for 45 min at room temperature with shaking (900 rpm).
(§5) The pre-incubated samples were transferred (50 μl/well) to the blocked ELISA plates, and plates were incubated for 10 min at room temperature without shaking. Plates were washed as described above. Alkaline phosphatase conjugated anti-mouse IgG detection antibody (Mabtech, cat. no. 3310-4) was diluted 1:1000 and added to each plate (50 μl/well). The plate was sealed and incubated with shaking (900 rpm) for 45 min at room temperature and subsequently washed as described above. Alkaline phosphatase substrate (50 μl/well) was added to the plate and the optical density was read every 10 min at a wavelength of 405 nm for up to 120 min. The IC50 values were determined from a log inhibitor concentration response curve (FIG. 25).

[6] = biological target: T1, 7B10, recombinant IgG2c antibody; test: inhibition ELISA, second protocol; antibody at 0.05 ug/ml pre-incubated with the peptide in solution (4-fold dilutions from 10000 ng/ml), then on a plate coated with G200-BSA peptide; blank reduced OD 405 nm
T1 construct: also called 7610
Protocol: as §4, with “[…]” for “Serial”, “peptide, recombinant C-terminal ApoE fragment G200-HIS and full-length ApoE4” for “peptide”, “1000” for “10000”, “peptides, G200-HIS or full-length ApoE4” for “peptides”
as §5, with “for 25” for “for 10”, “every 15” for “every 10”, “(FIG. 17).” for “(FIG. 25).”
(§6) In addition, a second inhibition ELISA with the ApoE peptides conjugated to BSA was run, in which the starting concentration of the antigens in solution was increased 10-fold. i.e. the starting concentration of the N-terminal neo-epitope of synthetic ApoE peptides conjugated to BSA and starting at amino acid L198 (SEQ ID NO:52), A199 (SEQ ID NO:51) or G200 (SEQ ID NO:50), or to BSA-conjugated negative control peptide (SEQ ID NO:53), was 10000 ng/ml. Furthermore, a 4-fold serial dilution of antigen was used, the plates were blocked with protein-free blocking solution (Pierce) for 90 min, the pre-incubated samples were incubated on the coated plates for 10 min (instead of 25 min), and the optical density was read every 10 min (instead of every 15 min). IC50 values were determined from a log inhibitor concentration response curve (FIG. 20).

[7] = biological target: 7C7, recombinant IgG2c antibody; test: as above
Protocol: as §4, with “[…]” for “Serial”, “peptide, recombinant C-terminal ApoE fragment G200-HIS and full-length ApoE4” for “peptide”, “1000” for “10000”, “peptides, G200-HIS or full-length ApoE4” for “peptides”
as §5, with “for 25” for “for 10”, “every 15” for “every 10”, “(FIG. 17).” for “(FIG. 25).”
as §6

[8] = biological target: 17G4, recombinant IgG2c antibody; test: as above
Protocol: as §4, with “[…]” for “Serial”, “peptide, recombinant C-terminal ApoE fragment G200-HIS and full-length ApoE4” for “peptide”, “1000” for “10000”, “peptides, G200-HIS or full-length ApoE4” for “peptides”
as §5, with “for 25” for “for 10”, “every 15” for “every 10”, “(FIG. 17).” for “(FIG. 25).”
as §6

[9] = biological target: 23D5, recombinant IgG2c antibody; test: as above
Protocol: as §4, with “[…]” for “Serial”, “peptide, recombinant C-terminal ApoE fragment G200-HIS and full-length ApoE4” for “peptide”, “1000” for “10000”, “peptides, G200-HIS or full-length ApoE4” for “peptides”
as §5, with “for 25” for “for 10”, “every 15” for “every 10”, “(FIG. 17).” for “(FIG. 25).”
as §6

[10] = biological target: 7C7, recombinant IgG2c antibody; test: inhibition ELISA 2nd protocol: antigen in solution varied, antibody 7C7, plate coated with G200-BSA peptide
Protocol: as §5, with “for 25” for “for 10”, “every 15” for “every 10”, “(FIG. 17).” for “(FIG. 25).”
(§7) In addition, a second inhibition ELISA with the ApoE peptides conjugated to BSA was run, in which the starting concentration of the antigens in solution was increased 10-fold. i.e. the starting concentration of the N-terminal neo-epitope of synthetic ApoE peptides conjugated to BSA and starting at amino acid L198 (SEQ ID NO:52), A199 (SEQ ID NO:51) or G200 (SEQ ID NO:50), or to BSA-conjugated negative control peptide (SEQ ID NO:53), was 10000 ng/ml. […] IC50 values were determined from a log inhibitor concentration response curve (FIG. 20).

[11] = biological target: 17G4, recombinant IgG2c antibody; test: inhibition ELISA 2nd protocol: antigen in solution varied, antibody 17G4, plate coated with G200-BSA peptide
Protocol: as §5, with “for 25” for “for 10”, “every 15” for “every 10”, “(FIG. 17).” for “(FIG. 25).”
as §7

[12] = biological target: 23D5, recombinant IgG2c antibody; test: inhibition ELISA 2nd protocol: antigen in solution varied, antibody 23D5, plate coated with G200-BSA peptide
Protocol: as §5, with “for 25” for “for 10”, “every 15” for “every 10”, “(FIG. 17).” for “(FIG. 25).”
as §7

[13] = biological target: 28F2, recombinant IgG2c antibody; test: inhibition ELISA 2nd protocol: antigen in solution varied, antibody 28F2, plate coated with G200-BSA peptide
Protocol: as §4, with “[…]” for “Serial”, “peptide, recombinant C-terminal ApoE fragment G200-HIS and full-length ApoE4” for “peptide”, “1000” for “10000”, “peptides, G200-HIS or full-length ApoE4” for “peptides”
as §5, with “for 25” for “for 10”, “every 15” for “every 10”, “(FIG. 17). […]” for “(FIG. 25).”

[14] = biological target: T1, 7B10, recombinant IgG2c antibody; test: inhibition ELISA 2nd protocol: antigen in solution varied, antibody 7B10, plate coated with G200-BSA peptide
Protocol: as §4, with “[…]” for “Serial”, “peptide, recombinant C-terminal ApoE fragment G200-HIS and full-length ApoE4” for “peptide”, “1000” for “10000”, “peptides, G200-HIS or full-length ApoE4” for “peptides”
as §5, with “for 25” for “for 10”, “every 15” for “every 10”, “(FIG. 17). […]” for “(FIG. 25).”

[15] = biological target: 7C7, recombinant IgG2c antibody; test: inhibition ELISA: antigen in solution varied, antibody 7C7 at 0.05 µg/ml, plate coated with G200-BSA peptide
Protocol: as §5, with “for 25” for “for 10”, “every 15” for “every 10”, “(FIG. 17).” for “(FIG. 25).”

[16] = biological target: 17G4, recombinant IgG2c antibody; test: inhibition ELISA: antigen in solution varied, antibody 17G4 at 0.05 µg/ml, plate coated with G200-BSA peptide
Protocol: as §5, with “for 25” for “for 10”, “every 15” for “every 10”, “(FIG. 17).” for “(FIG. 25).”

[17] = biological target: 23D5, recombinant IgG2c antibody; test: inhibition ELISA: antigen in solution varied, antibody 23D5 at 0.05 µg/ml, plate coated with G200-BSA peptide
Protocol: as §5, with “for 25” for “for 10”, “every 15” for “every 10”, “(FIG. 17).” for “(FIG. 25).”

[18] = biological target: 28F2, recombinant IgG2c antibody; test: inhibition ELISA: antigen in solution varied, antibody 28F2 at 0.05 µg/ml, plate coated with G200-BSA peptide
Protocol: as §4, with “[…]” for “Serial”, “peptide, recombinant C-terminal ApoE fragment G200-HIS and full-length ApoE4” for “peptide”, “1000” for “10000”, “peptides, G200-HIS or full-length ApoE4” for “peptides”
as §5, with “for 25” for “for 10”, “every 15” for “every 10”, “(FIG. 17).” for “(FIG. 25).”

[19] = biological target: T1, 7B10, recombinant IgG2c antibody; test: inhibition ELISA: antigen in solution varied, antibody 7B10 at 0.05 µg/ml, plate coated with G200-BSA peptide
Protocol: as §5, with “for 25” for “for 10”, “every 15” for “every 10”, “(FIG. 17).” for “(FIG. 25).”

[20] = biological target: 15F8, monoclonal anti-L198 antibody; test: inhibition ELISA; antibody at 0.05 ug/ml pre-incubated with the peptide in solution (4-fold dilutions from 10000 ng/ml), then on a plate coated with L198-BSA peptide; blank reduced OD 405 nm
Protocol: as §1, with “L198” for “A199”, “NO:52)” for “NO:51)”
as §4, §5

[21] = biological target: 36A12, monoclonal anti-A199 antibody; test: inhibition ELISA; antibody at 0.05 ug/ml pre-incubated with the peptide in solution (4-fold dilutions from 10000 ng/ml), then on a plate coated with A199-BSA peptide; blank reduced OD 405 nm
Protocol: as §1
as §4, with “purified monoclonal” for “recombinant”
as §5, with “29).” for “25).”

[22] = biological target: 38G9, monoclonal anti-A199 antibody; test: as above
Protocol: as §1
as §4, with “purified monoclonal” for “recombinant”
as §5, with “29).” for “25).”

Chain of 7C7, recombinant IgG2c antibody (VH, as listed by the source, chain 1 of 2): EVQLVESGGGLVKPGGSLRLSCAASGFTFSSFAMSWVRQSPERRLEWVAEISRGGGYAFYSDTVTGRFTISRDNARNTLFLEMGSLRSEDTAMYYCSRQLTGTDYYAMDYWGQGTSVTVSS
Chain of 7C7, recombinant IgG2c antibody (VL, as listed by the source, chain 2 of 2): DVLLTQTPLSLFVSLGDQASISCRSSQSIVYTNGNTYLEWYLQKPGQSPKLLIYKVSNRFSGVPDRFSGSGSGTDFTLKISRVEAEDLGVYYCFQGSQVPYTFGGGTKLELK
Chain of 17G4, recombinant IgG2c antibody (VH, as listed by the source, chain 1 of 2): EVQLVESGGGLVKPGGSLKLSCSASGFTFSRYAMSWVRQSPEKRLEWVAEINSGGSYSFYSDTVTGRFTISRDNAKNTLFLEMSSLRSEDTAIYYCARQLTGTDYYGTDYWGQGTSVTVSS
Chain of 17G4, recombinant IgG2c antibody (VL, as listed by the source, chain 2 of 2): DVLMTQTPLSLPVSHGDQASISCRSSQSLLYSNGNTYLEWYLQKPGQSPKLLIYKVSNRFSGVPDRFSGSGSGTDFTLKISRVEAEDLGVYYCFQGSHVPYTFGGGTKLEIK
T1 sequence (VH, as listed by the source, chain 1 of 2): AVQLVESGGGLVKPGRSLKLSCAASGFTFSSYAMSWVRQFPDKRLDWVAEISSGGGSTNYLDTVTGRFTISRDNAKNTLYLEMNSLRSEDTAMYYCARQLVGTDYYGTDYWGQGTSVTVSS
T1 sequence (VL, as listed by the source, chain 2 of 2): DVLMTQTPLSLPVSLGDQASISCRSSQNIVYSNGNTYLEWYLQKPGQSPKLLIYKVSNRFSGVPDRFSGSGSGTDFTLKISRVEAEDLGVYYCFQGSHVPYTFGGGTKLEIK
Chain of 23D5, recombinant IgG2c antibody (VH, as listed by the source, chain 1 of 2): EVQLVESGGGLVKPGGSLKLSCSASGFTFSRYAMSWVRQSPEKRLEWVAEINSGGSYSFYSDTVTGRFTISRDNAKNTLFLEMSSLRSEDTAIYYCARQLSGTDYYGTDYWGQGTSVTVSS
Chain of 28F2, recombinant IgG2c antibody (VH, as listed by the source, chain 1 of 2): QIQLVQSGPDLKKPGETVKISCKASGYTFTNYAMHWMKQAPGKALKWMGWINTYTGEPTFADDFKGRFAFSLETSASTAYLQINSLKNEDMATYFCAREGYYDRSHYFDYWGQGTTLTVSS
Chain of 28F2, recombinant IgG2c antibody (VL, as listed by the source, chain 2 of 2): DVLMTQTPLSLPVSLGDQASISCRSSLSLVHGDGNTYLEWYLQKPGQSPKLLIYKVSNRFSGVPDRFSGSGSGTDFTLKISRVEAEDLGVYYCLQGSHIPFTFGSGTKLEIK
Chain of 6F4, monoclonal anti-L198 antibody (VH, as listed by the source, chain 1 of 2): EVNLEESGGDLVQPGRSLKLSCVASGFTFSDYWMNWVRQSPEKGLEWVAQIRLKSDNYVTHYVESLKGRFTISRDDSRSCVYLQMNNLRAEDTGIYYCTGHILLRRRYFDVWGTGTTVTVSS
Chain of 6F4, monoclonal anti-L198 antibody (VL, as listed by the source, chain 2 of 2): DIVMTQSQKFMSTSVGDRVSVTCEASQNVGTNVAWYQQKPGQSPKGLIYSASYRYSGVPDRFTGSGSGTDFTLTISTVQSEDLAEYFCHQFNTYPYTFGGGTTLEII
Chain of 36A12, monoclonal anti-A199 antibody (VH, as listed by the source, chain 1 of 2): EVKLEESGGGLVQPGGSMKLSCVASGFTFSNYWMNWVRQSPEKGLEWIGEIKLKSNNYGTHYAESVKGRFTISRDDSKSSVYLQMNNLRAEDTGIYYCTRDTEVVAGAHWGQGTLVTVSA
Chain of 36A12, monoclonal anti-A199 antibody (VL, as listed by the source, chain 2 of 2): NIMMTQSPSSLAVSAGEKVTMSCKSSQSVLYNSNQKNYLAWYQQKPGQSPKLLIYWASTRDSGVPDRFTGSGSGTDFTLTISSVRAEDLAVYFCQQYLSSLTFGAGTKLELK
Chain of 38G9, monoclonal anti-A199 antibody (VH, as listed by the source, chain 1 of 2): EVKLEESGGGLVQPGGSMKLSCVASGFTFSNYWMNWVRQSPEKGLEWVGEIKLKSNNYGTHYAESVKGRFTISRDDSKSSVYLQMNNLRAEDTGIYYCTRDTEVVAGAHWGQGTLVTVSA
Chain of 38G9, monoclonal anti-A199 antibody (VL, as listed by the source, chain 2 of 2): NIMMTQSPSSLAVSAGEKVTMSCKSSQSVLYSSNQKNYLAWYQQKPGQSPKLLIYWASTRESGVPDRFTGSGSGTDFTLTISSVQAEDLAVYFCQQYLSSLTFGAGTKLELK
Chain of 63F6, monoclonal anti-A199 antibody (VH, as listed by the source, chain 1 of 2): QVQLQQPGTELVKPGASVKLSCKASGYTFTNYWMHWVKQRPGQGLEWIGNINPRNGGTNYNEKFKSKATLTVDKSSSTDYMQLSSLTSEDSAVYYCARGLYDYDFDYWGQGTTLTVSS
Chain of 63F6, monoclonal anti-A199 antibody (VL, as listed by the source, chain 2 of 2): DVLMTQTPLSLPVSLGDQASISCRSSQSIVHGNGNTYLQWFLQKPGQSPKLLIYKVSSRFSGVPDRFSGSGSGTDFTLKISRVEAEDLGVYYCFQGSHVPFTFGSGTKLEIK
Chain of 15F8, monoclonal anti-L198 antibody (VH, as listed by the source, chain 1 of 2): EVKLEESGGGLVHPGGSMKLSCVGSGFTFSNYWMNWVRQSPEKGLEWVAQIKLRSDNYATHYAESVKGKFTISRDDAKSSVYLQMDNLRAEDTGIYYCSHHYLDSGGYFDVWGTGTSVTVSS
Chain of 15F8, monoclonal anti-L198 antibody (VL, as listed by the source, chain 2 of 2): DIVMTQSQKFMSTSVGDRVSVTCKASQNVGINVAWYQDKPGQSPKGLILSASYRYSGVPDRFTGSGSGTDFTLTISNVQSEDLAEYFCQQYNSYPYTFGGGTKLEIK
Chain of 67G3, monoclonal anti-A199 antibody (VH, as listed by the source, chain 1 of 2): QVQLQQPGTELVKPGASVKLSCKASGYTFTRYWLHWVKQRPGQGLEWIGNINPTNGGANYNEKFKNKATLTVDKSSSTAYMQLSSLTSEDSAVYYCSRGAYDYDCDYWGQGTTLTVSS
Chain of 67G3, monoclonal anti-A199 antibody (VL, as listed by the source, chain 2 of 2): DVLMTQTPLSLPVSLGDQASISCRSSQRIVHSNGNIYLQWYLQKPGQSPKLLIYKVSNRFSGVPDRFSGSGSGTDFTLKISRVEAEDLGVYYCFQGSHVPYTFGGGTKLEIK

IC50 [1]: 52.6 ng/mL
IC50 [2]: 2.5 ng/mL
IC50 [3]: 2.9 ng/mL
IC50 [4]: 27.7 ng/mL
binding result [5]: no binding (tested: 10000 ng/ml)
binding result [6]: no binding (tested: 10000 ng/ml)
binding result [7]: no binding (tested: 10000 ng/ml)
binding result [8]: no binding (tested: 10000 ng/ml)
binding result [9]: no binding (tested: 10000 ng/ml)
B1: A199 N-terminal neo-epitope peptide AGQPLQ-Acp-C (SEQ ID NO:51) conjugated to BSA (peptide)
peptide: AGQPLQ[Ahx]C
modifications: not fully specified (residue 8); printed as AGQPLQ-Acp-C; also: C-terminal Cys conjugated to BSA carrier
notes: BSA carrier; also called A199-BSA peptide

IC50 [10]: 6.3 ng/mL
IC50 [11]: 5.8 ng/mL
IC50 [12]: 3.8 ng/mL
IC50 [13]: 3.7 ng/mL
IC50 [14]: 5.8 ng/mL
IC50 [15]: 3.1 ng/mL
IC50 [16]: 2.9 ng/mL
IC50 [17]: 2.8 ng/mL
IC50 [18]: 3.2 ng/mL
IC50 [19]: 2.2 ng/mL
binding result [5]: no binding (tested: 10000 ng/ml)
binding result [20]: no binding (tested: 10000 ng/ml)
binding result [21]: no binding (tested: 10000 ng/ml)
binding result [22]: no binding (tested: 10000 ng/ml)
B2: G200 N-terminal neo-epitope peptide GQPLQE-Acp-C (SEQ ID NO:50) conjugated to BSA (peptide)
peptide: GQPLQE[Ahx]C
modifications: not fully specified (residue 8); printed as GQPLQE-Acp-C; also: C-terminal Cys conjugated to BSA carrier
notes: also called G200-BSA peptide; G200-peptide
